Data taken from patent US20240279618A1, “RECEPTOR TYROSINE KINASE AGONIST, COMPOSITION FOR CELL CULTURE MEDIUM, AND […] MAINTENANCE COMPOSITION” (SEKISUI CHEMICAL CO., LTD., priority 2021, published 2024).

B1: VHH Clone #1: alpaca-derived VHH single-domain antibody (monomer) binding FGFR1, amino acid sequence SEQ ID NO: 17 (protein)
VHH: QLQLVESGGGSVQAGGSLRLSCAASRSLSRFNVWTWYRQAPVKQRELVASITKSGDTNYAESVKGRFIISRDDDKNTVYLQMNNLKSEDTGIYYCAGSYYSGSYLYPSPGGFSVWGQGTQVTVSS
modifications: VHH_Clone_#1
B2: VHH Clone #2: alpaca-derived VHH single-domain antibody (monomer) binding FGFR1, amino acid sequence SEQ ID NO: 18 (protein)
VHH: QVQLVESGGGLVQAGGSLRLSCAVPGSIFRFNTMGWYRQPPGKQRELVAQMSRGGITKYGDSVKGRFTITRDNAKNTVHLQMNSLKPEDTAVYYCAGSYYSGSYYYPSPQGFSVWGQGTQVTVSP
modifications: VHH_Clone_#2
B3: #1-L4-#1: dimer of VHH #1 with linker L4 (GSEGKSSGSGSESKST), SEQ ID NO: 23 (protein)
VHH: QLQLVESGGGSVQAGGSLRLSCAASRSLSRFNVWTWYRQAPVKQRELVASITKSGDTNYAESVKGRFIISRDDDKNTVYLQMNNLKSEDTGIYYCAGSYYSGSYLYPSPGGFSVWGQGTQVTVSSGSEGKSSGSGSESKSTQLQLVESGGGSVQAGGSLRLSCAASRSLSRFNVWTWYRQAPVKQRELVASITKSGDTNYAESVKGRFIISRDDDKNTVYLQMNNLKSEDTGIYYCAGSYYSGSYLYPSPGGFSVWGQGTQVTVSS
modifications: #1-L4-#1

How the values were obtained:
[1] = tested on: mouse fibroblast cell line NIH/3T3; assay: Solution preservation stability of bFGF and VHH homodimer, read out by fibroblast growth; assay type: cell-based; settings: 0.5 mg/mL in D-PBS, fibroblast growth on second day
Method: bFGF and the VHH homodimer (SEQ ID NO: 23, sequence name: #1-LA-#1, sometimes referred to as a single-domain antibody) was mixed with a D-PBS solution (Fujifilm Wako Pure Chemical Corporation) so that the concentration was 0.5 mg/mL, and incubation was performed at 37° C. for 1 week. Then, the growth promoting abilities for fibroblast growth of four test subjects, which are an incubated VHH homodimer, a pre-incubated bFGF, a VHH homodimer after thawing from freeze-preservation, and bFGF immediately after solutionizing with D-PBS from a freeze-dried product, were evaluated. As a negative control, culture without any of the bFGF and the VHH homodimer was also performed at the same time. The culture conditions were the same as those in Item 1 and Item 2 of the present Example, and the cell growth was evaluated by the number of cells on the second day after the start of culture.

[2] = tested on: mouse fibroblast cell line NIH/3T3; assay: Inhibition of growth factor activity of VHH homodimer by FGFR inhibitor (fibroblasts); assay type: cell-based; settings: 10 and 100 ng/ml test substance plus FGFR kinase inhibitor
Description: Promotion of Fibroblast Growth by VHH (Homodimer)” described above.
It was examined whether the cell growth activities of bFGF and the single-domain antibody were inhibited by NPV-BGJ398 which is an FGFR kinase inhibitor.

[3] = tested on: NIH3T3 (mouse fibroblast cell line); assay: Inhibition of growth factor activity of VHH homodimer by FGFR antagonist; assay type: cell-based; settings: 10 or 100 ng/mL test substance, 20 nM NVP-BGJ398
Method: The cell growth assay for FGF2 was performed according to the following procedure. On Day 1, a suspension including 2.5×10^4 cells/mL of NIH3T3 in DMEM of 10% CS and PS(+) was created, seeded on a CulturPlate-96 (White Opaque 96-well Microplate, manufactured by Perkin Elmer, Cat #6005680) at 100 μL/well, and cultured in a 5% CO2 incubator at 37° C. for 16 to 24 hours. On Day 2, the medium was replaced with FGF2 (PeproTech Cat #AF-100-18B) or serum-free PS(+) DMEM including various test substances, and the cells were further cultured for 2 days. On Day 4, the 96-well plate was left at room temperature for 30 minutes, and then 100 μL of Cell Titer Glo 2.0 Reagent (manufactured by Promega Corporation) at room temperature was added to each well, followed by stirring at 500 rpm for 2 minutes using a plate mixer. The plate was further left to stand for 8 minutes, and then the luminescence in each well was measured with a Synergy HTX plate reader (manufactured by BioTek) with a sensitivity set (Gain) of 200 and a measurement time of 1 s/well.
The addition amounts of FGF2 and #1L4 (hereinafter also referred to as “#1-L4-#1”), which is a dimer of VHH #1 with a linker […], were each 10 or 100 ng/mL.

[4] = tested on: phospho-p44/42 MAPK (Erk½); assay: Agonist activity by In Cell ELISA in NIH3T3 cells; assay type: cell-based, mouse; settings: 30 minutes stimulation, final dilution ratio 100-fold, relative to no stimulus = 1
Description: In order to verify the agonist activity of the purified VHH (monomer), the expression level of phospho-p44/42 MAPK (Erk½) was […] by using an In Cell ELISA method. VHH (monomer) was allowed to act on the cells such that the final dilution ratio was 100-fold. In addition, as a positive control, FGF2 (fibroblast growth factor (basic) (FGF-basic/bFGF/FGF2), human, recombinant, animal-derived substance-free (154aa): product code 068-05384; manufactured by Fujifilm Wako Pure Chemical Corporation: final concentration: 100 ng/mL) was used. The experimental procedure was as described below.
A D-MEM (D6429, manufactured by Sigma-Aldrich Co., LLC) medium including a 10% fetal bovine serum (S0400, manufactured by BWT) and 1% Penicillin-Streptomycin Mixed Solution, 26253-84, manufactured by Nacalai Tesque, Inc.) was prepared, NIH3T3 (CRL1658, ATCC) was suspended therein, and the suspension was seeded on a 96-well plate for cell culture at 1× 10^4 cells/well and cultured overnight at 37° C. with light shielded in a 5% CO2 incubator. The medium in each well was removed and the inside of each well was washed with a serum-free medium. […]

Molecule	cell growth activity after incubation at 37° C. for 1 week [1]	cell growth with addition of NPV-BGJ398 [2]	cell growth activity with addition of NVP-BGJ398 [3]	agonist activity (expression level of phospho-p44/42 MAPK (Erk½)) [4]
FGF2: fibroblast growth factor (basic), human, recombinant (154aa), positive control; SEQ ID NO: 58 [reference compound]	the same as that in the case of no addition	suppressed cell growth	inhibited	
B1				none of the VHHs (monomers) have an agonist activity
B2				none of the VHHs (monomers) have an agonist activity
B3	exhibited the same cell growth activity as that of bFGF	suppressed cell growth	inhibited	
